The assay deals with HCT-15 tumor-bearing mice. In words: In-vivo and ex-vivo fluorescence imaging of EGF-Cy5.5, C-probe, EGF-probe. As to the method: The biodistribution of the EGF-probe intravenously administered to mice having HCT-15, HT29, Lovo or HCT-8 tumors was evaluated. First of all, 6-week-old Balb/c-nude mice (Nara-Biotec, Gyeonggi-do, Korea) were prepared and each cell was subcutaneously inoculated into the nude mice at the right flank at a concentration of 2×10^6 cells/mouse to generate tumors. […] At 24 hours after the administration of the EGF-probe, the mouse was imaged using an IVIS fluorescence imaging system. […] IVIS fluorescence imaging was conducted at 24 hours after the administration. Major organs and tumors were obtained and imaged with an IVIS imaging system. The fluorescence intensity of the organs and tumors was analyzed using the Living Image 2.50 software. […] The tumor tissue sections were counter-stained with DAPI and visualized with a confocal microscope.

B1: EGF-Cy5.5 (conjugate, UniProt P01133 23-1207, looked up)
Pro-epidermal growth factor: PQHWSCPEGTLAGNGNSTCVGPAPFLIFSHGNSIFRIDTEGTNYEQLVVDAGVSVIMDFHYNEKRIYWVDLERQLLQRVFLNGSRQERVCNIEKNVSGMAINWINEEVIWSNQQEGIITVTDMKGNNSHILLSALKYPANVAVDPVERFIFWSSEVAGSLYRADLDGVGVKALLETSEKITAVSLDVLDKRLFWIQYNREGSNSLICSCDYDGGSVHISKHPTQHNLFAMSLFGDRIFYSTWKMKTIWIANKHTGKDMVRINLHSSFVPLGELKVVHPLAQPKAEDDTWEPEQKLCKLRKGNCSSTVCGQDLQSHLCMCAEGYALSRDRKYCEDVNECAFWNHGCTLGCKNTPGSYYCTCPVGFVLLPDGKRCHQLVSCPRNVSECSHDCVLTSEGPLCFCPEGSVLERDGKTCSGCSSPDNGGCSQLCVPLSPVSWECDCFPGYDLQLDEKSCAASGPQPFLLFANSQDIRHMHFDGTDYGTLLSQQMGMVYALDHDPVENKIYFAHTALKWIERANMDGSQRERLIEEGVDVPEGLAVDWIGRRFYWTDRGKSLIGRSDLNGKRSKIITKENISQPRGIAVHPMAKRLFWTDTGINPRIESSSLQGLGRLVIASSDLIWPSGITIDFLTDKLYWCDAKQSVIEMANLDGSKRRRLTQNDVGHPFAVAVFEDYVWFSDWAMPSVMRVNKRTGKDRVRLQGSMLKPSSLVVVHPLAKPGADPCLYQNGGCEHICKKRLGTAWCSCREGFMKASDGKTCLALDGHQLLAGGEVDLKNQVTPLDILSKTRVSEDNITESQHMLVAEIMVSDQDDCAPVGCSMYARCISEGEDATCQCLKGFAGDGKLCSDIDECEMGVPVCPPASSKCINTEGGYVCRCSEGYQGDGIHCLDIDECQLGEHSCGENASCTNTEGGYTCMCAGRLSEPGLICPDSTPPPHLREDDHHYSVRNSDSECPLSHDGYCLHDGVCMYIEALDKYACNCVVGYIGERCQYRDLKWWELRHAGHGQQQKVIVVAVCVVVLVMLLLLSLWGAHYYRTQKLLSKNPKNPYEESSRDVRSRRPADTEDGMSSCPQPWFVVIKEHQDLKNGGQPVAGEDGQAADGSMQPTSWRQEPQLCGMGTEQGCWIPVSSDKGSCPQVMERSFHMPSYGTQTLEGGVEKPHSLLSANPLWQQRALDPPHQMELTQ
modifications: Pro-epidermal growth factor Cy5.5 dye label
For the molecule B1, for the setting “5 mg/kg intravenous, 24 hours, IVIS”, the “in-vivo fluorescence imaging (tumor and background signals)” value was “strong fluorescence signal at the tumor site but nonspecific background signals were observed throughout the body”. The “fluorescence of tumor tissue sections” value (cryosections, confocal) is “observed clearly”.
